# Experimental data as given in patent US20110200528A1 (GOVERNMENT OF THE UNITED STATES OF AMERICA, published 2011).
# OG = Oregon Green 488 (6-isomer carboxylic acid) on Lys side chain
# Legend:
# [1] = target: aminopeptidase N isoform CD13 (APN/CD13) on HT-1080 human fibrosarcoma cells (human) (UniProt P15144); assay: flow cytometry on HT-1080 cells
# [2] = target: T1, aminopeptidase N isoform CD13 (APN/CD13) on HT-1080 human fibrosarcoma cells (human, UniProt P15144 2-967); assay: flow cytometry on CD13-positive HT-1080 cells
# T1 construct: whole, on cells; also called CD13/APN marker
# Description: To determine the half maximal effective concentration (EC₅₀) of cK(OG)NGRE (SEQ ID NO:2) and low temperature sensitive liposomes targeted with 5 mol % DSPE-PEG-cNGR, flow cytometry was performed according to standard procedures with HT-1080 cells. Approximately 94% of the HT-1080 cells were positive for the WM15 antibody indicating the presence of CD13 on these cells.
# [3] = target: aminopeptidase N isoform CD13 (APN/CD13) on HT-1080 human fibrosarcoma cells (human) (UniProt P15144); assay: flow cytometry on CD13-positive HT-1080 cells; reference: liposome with a linear peptide
# Chain of aminopeptidase N isoform CD13 (APN/CD13) on HT-1080 human fibrosarcoma cells (human) (P15144 2-967): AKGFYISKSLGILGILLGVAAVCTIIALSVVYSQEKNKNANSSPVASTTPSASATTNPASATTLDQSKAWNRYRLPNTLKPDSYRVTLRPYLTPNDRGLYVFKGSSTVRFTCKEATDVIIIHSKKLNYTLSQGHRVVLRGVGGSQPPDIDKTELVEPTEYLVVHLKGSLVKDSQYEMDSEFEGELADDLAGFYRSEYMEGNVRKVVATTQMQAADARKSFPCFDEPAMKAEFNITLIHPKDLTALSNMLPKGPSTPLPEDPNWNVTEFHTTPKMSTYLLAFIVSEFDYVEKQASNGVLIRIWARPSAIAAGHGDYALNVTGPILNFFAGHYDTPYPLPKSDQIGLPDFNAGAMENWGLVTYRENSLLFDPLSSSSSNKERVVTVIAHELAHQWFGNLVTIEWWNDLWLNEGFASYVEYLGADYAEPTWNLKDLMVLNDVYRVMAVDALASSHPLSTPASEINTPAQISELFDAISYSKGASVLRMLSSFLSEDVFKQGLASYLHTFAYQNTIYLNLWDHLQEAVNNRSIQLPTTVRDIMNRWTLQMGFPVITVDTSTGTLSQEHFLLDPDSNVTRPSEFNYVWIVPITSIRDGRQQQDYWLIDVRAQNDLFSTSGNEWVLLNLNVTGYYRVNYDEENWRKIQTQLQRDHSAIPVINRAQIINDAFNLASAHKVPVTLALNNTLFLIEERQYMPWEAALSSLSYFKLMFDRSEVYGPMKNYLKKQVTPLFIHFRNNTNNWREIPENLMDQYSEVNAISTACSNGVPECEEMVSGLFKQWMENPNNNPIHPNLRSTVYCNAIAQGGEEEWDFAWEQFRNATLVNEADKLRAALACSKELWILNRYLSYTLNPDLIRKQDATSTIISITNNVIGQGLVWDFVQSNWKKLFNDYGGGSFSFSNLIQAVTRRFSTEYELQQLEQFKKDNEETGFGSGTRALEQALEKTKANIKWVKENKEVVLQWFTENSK
# T1 sequence (P15144 2-967): as above
Molecule,EC50 [2] [µM],further results
"Anti-CD13 monoclonal antibody (WM15, Alexa Fluor 488-conjugated)",–,percent of cells positive [1]: 94%
KNGRE (also called linear NGR peptide; free linear NGR peptide) [linear form of an NGR-containing peptide (SEQ ID NO:4)],220,–
KNGRE (cyclized cKNGRE; conjugated to DSPE-PEG2000CH2COOH (DSPE-PEG-cNGR conjugate 7) and built into a liposome (DPPC:MSPC:DSPE-PEG-cNGR 86.3:9.7:5)) [low temperature sensitive liposomes targeted with 5 mol % DSPE-PEG-cNGR],–,fold lower binding concentration against the liposome with a linear peptide [3]: 3.5 fold
"cyclo(K(OG)NGRE) (also: Glu side chain coupled to Rink amide resin (side-chain amide), also called compound 6; NGR-OG agent) [cyclic cK(OG)NGRE (SEQ ID NO:2)]",61,–
